Experimental data reported in paper PMC9688318, “Construction of a Versatile, Programmable RNA-Binding Protein Using Designer PPR Proteins and Its Application for Splicing Control in Mammalian Cells”.

Columns and labels:
[1] = molecular target: T1, PPR2.0 t4 (synthetic); test: 20 mM Tris-HCl pH 8.0, 150 mM NaCl, 0.5% NP-40, 1 mM DTT; conditions: tags: N-terminal NanoLuc, C-terminal His6, kept; label: biotin
T1 chain: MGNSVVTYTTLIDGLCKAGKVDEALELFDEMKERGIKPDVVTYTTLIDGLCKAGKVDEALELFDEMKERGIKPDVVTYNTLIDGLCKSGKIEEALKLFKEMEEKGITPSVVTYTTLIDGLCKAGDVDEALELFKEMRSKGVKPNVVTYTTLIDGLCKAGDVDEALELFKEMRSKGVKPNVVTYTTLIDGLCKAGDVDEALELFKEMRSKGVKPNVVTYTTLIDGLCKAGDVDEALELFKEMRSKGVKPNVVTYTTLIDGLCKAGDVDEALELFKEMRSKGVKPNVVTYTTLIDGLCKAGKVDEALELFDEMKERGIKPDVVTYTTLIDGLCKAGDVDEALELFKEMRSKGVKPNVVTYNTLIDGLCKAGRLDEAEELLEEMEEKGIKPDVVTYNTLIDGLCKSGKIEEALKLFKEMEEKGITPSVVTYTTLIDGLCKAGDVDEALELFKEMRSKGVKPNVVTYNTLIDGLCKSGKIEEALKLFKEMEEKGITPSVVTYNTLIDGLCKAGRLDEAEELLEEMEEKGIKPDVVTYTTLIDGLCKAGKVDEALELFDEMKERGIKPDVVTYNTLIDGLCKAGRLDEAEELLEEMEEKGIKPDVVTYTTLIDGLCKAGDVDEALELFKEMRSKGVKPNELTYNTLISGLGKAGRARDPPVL

[2] = molecular target: T1, PPR2.0 t4; test: EMSA; 20 mM Tris-HCl pH 8.0, 150 mM NaCl, 0.5% NP-40, 1 mM DTT, 1 mM EDTA; 20 nM RNA; conditions: tags: N-terminal SBP, C-terminal His6, kept; label: biotin
[3] = molecular target: T2, PPR2.0 t8 (synthetic); test: 20 mM Tris-HCl pH 8.0, 150 mM NaCl, 0.5% NP-40, 1 mM DTT; conditions: tags: N-terminal NanoLuc, C-terminal His6, kept; label: biotin
T2 chain: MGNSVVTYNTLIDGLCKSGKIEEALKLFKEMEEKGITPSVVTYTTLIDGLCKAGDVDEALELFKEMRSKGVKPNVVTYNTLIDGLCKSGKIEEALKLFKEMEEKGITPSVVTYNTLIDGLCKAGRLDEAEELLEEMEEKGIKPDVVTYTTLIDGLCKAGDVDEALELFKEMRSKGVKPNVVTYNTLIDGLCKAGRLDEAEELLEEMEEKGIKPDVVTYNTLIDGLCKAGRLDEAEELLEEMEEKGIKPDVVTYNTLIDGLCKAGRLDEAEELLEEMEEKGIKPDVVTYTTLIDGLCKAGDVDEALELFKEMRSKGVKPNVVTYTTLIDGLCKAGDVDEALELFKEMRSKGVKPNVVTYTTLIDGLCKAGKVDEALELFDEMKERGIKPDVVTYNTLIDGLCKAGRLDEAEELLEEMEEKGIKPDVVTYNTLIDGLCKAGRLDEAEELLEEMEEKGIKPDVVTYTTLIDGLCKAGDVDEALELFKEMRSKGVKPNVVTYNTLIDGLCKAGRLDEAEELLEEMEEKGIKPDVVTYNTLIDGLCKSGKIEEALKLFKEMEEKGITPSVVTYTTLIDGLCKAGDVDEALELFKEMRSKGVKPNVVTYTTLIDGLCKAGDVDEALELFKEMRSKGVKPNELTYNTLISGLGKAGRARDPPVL

[4] = molecular target: T2, PPR2.0 t8; test: EMSA; 20 mM Tris-HCl pH 8.0, 150 mM NaCl, 0.5% NP-40, 1 mM DTT, 1 mM EDTA; 20 nM RNA; conditions: tags: N-terminal SBP, C-terminal His6, kept; label: biotin
[5] = molecular target: T3, PPR2.0 t5 (synthetic); test: 20 mM Tris-HCl pH 8.0, 150 mM NaCl, 0.5% NP-40, 1 mM DTT; conditions: tags: N-terminal NanoLuc, C-terminal His6, kept; label: biotin
T3 chain: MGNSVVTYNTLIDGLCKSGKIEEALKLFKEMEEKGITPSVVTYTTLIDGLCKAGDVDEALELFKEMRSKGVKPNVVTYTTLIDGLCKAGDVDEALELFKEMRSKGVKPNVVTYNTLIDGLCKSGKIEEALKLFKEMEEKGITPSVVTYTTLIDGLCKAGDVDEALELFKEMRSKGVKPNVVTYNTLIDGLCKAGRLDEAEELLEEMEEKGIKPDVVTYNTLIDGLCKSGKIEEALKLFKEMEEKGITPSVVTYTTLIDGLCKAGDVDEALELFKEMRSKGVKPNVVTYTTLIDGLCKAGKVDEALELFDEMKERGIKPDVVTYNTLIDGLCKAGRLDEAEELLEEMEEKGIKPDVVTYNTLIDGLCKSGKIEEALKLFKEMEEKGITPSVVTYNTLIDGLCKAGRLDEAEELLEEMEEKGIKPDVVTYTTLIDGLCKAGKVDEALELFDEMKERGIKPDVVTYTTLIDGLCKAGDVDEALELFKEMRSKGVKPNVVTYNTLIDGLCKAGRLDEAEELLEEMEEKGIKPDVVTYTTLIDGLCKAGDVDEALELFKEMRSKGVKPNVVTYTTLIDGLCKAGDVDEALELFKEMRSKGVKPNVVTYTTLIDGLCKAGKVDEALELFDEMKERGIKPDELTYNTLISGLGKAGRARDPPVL

[6] = molecular target: T3, PPR2.0 t5; test: EMSA; 20 mM Tris-HCl pH 8.0, 150 mM NaCl, 0.5% NP-40, 1 mM DTT, 1 mM EDTA; 20 nM RNA; conditions: tags: N-terminal SBP, C-terminal His6, kept; label: biotin
[7] = molecular target: T4, PPR2.0 t11 (synthetic); test: 20 mM Tris-HCl pH 8.0, 150 mM NaCl, 0.5% NP-40, 1 mM DTT; conditions: tags: N-terminal NanoLuc, C-terminal His6, kept; label: biotin
T4 chain: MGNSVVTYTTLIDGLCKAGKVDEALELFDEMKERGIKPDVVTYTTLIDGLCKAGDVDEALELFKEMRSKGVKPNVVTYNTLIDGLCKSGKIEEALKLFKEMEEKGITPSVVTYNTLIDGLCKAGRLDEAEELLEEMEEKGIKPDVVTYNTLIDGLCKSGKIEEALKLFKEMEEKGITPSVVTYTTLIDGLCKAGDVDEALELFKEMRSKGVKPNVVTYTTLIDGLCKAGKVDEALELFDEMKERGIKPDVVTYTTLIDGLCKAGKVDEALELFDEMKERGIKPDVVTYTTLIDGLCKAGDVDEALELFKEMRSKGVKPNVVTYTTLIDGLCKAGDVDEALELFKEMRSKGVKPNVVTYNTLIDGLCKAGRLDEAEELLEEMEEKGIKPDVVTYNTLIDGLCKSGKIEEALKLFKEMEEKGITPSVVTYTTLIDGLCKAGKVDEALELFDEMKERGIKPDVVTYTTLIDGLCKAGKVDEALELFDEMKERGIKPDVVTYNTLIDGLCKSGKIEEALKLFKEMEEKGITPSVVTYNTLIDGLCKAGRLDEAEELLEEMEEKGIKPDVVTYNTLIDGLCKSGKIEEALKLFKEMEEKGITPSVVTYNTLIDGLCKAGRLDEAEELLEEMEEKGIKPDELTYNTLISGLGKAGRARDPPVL

[8] = molecular target: T4, PPR2.0 t11; test: EMSA; 20 mM Tris-HCl pH 8.0, 150 mM NaCl, 0.5% NP-40, 1 mM DTT, 1 mM EDTA; 20 nM RNA; conditions: tags: N-terminal SBP, C-terminal His6, kept; label: biotin
[9] = molecular target: T5, PPR2.0 t14 (synthetic); test: 20 mM Tris-HCl pH 8.0, 150 mM NaCl, 0.5% NP-40, 1 mM DTT; conditions: tags: N-terminal NanoLuc, C-terminal His6, kept; label: biotin
T5 chain: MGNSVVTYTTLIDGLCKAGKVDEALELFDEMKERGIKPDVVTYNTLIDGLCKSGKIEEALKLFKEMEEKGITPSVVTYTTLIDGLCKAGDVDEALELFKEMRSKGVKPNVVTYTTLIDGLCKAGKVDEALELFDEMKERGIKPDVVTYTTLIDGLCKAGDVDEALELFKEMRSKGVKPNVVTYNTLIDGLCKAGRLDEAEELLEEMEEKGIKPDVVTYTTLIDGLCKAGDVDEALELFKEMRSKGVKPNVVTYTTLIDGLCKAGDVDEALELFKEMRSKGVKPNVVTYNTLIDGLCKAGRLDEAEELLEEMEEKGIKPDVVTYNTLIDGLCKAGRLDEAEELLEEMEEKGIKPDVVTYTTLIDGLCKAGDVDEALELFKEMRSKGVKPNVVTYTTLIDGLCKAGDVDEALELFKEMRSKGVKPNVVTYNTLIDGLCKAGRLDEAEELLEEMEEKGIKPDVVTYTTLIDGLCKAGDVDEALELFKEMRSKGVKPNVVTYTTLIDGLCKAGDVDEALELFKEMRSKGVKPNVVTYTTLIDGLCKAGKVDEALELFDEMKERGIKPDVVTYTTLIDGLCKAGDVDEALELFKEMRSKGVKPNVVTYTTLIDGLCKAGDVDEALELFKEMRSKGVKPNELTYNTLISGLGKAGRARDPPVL

[10] = molecular target: T5, PPR2.0 t14; test: EMSA; 20 mM Tris-HCl pH 8.0, 150 mM NaCl, 0.5% NP-40, 1 mM DTT, 1 mM EDTA; 20 nM RNA; conditions: tags: N-terminal SBP, C-terminal His6, kept; label: biotin
[11] = molecular target: T6, PPR2.0 t15 (synthetic); test: 20 mM Tris-HCl pH 8.0, 150 mM NaCl, 0.5% NP-40, 1 mM DTT; conditions: tags: N-terminal NanoLuc, C-terminal His6, kept; label: biotin
T6 chain: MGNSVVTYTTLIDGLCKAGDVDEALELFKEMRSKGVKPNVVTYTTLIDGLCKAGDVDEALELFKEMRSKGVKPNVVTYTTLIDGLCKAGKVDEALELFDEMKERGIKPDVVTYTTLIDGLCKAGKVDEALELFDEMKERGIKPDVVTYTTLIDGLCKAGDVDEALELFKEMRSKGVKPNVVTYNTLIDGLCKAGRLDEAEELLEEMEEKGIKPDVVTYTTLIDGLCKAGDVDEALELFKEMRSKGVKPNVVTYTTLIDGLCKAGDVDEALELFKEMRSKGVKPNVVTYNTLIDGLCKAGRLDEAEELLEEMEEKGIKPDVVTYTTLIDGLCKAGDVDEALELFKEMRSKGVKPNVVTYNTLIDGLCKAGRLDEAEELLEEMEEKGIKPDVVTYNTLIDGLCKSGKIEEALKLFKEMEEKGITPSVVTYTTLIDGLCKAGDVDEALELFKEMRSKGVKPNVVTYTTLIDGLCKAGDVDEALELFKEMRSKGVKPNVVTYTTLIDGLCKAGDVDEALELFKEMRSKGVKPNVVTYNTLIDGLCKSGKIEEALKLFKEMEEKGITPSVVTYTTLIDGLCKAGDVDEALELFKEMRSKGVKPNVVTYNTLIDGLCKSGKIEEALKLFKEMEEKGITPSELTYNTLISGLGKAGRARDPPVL

[12] = molecular target: T6, PPR2.0 t15; test: EMSA; 20 mM Tris-HCl pH 8.0, 150 mM NaCl, 0.5% NP-40, 1 mM DTT, 1 mM EDTA; 20 nM RNA; conditions: tags: N-terminal SBP, C-terminal His6, kept; label: biotin

B1: Probe_t4 (ssRNA)
RNA: GACAUGCGGCAAAAAGAUCACUGUAGACUG
binding signal [1]: 5.98e+07 RBP-ELISA luminescence, CPS
Kd [2]: 2.57 nM

B2: Probe_t8 (ssRNA)
RNA: GACAUGCCACUAUUUAAGUUAUCAAGACUG
binding signal [3]: 4.7e+07 RBP-ELISA luminescence, CPS
Kd [4]: 1.95 nM

B3: Probe_t5 (ssRNA)
RNA: GACAUGCCAACAUCAGUCUGAUAAGGACUG
binding signal [5]: 1.67e+07 RBP-ELISA luminescence, CPS
Kd [6]: 167 nM

B4: Probe_t11 (ssRNA)
RNA: GACAUGCGACUCAGGAAUCGGCUCUGACUG
binding signal [7]: 3.78e+07 RBP-ELISA luminescence, CPS
Kd [8]: 63.3 nM

B5: Probe_t14 (ssRNA)
RNA: GACAUGCGCAGAUAAUUAAUAAGAAGACUG
binding signal [9]: 1.33e+07 RBP-ELISA luminescence, CPS
Kd [10]: 197 nM

B6: Probe_t15 (ssRNA)
RNA: GACAUGCAAGGAUAAUAUCAAACACGACUG
binding signal [11]: 2.84e+07 RBP-ELISA luminescence, CPS
Kd [12]: 41 nM
